The source of these data is patent US20210292393A1 (published 2021).

Changes are numbered by the printed parent chain.

To fix the notation:
B1: antibody 546 (antibody, V domains shown)
VH: QVQLVESGGGVVQPGRSLRLSCAASGFTFSSYGMHWVRQAPGKGLEWVAVIWYDGSNKYYADSVKGRFTISRDNSKNTLYLQMNSLRAEDTAVYYCARNCGGDCVAGDGFDYWGQGTLVTVSS
VL: DIQMTQSPSSLSASVGDRVTITCRASQSISSYLNWYQQKPGKAPNLLIYAASSLQSGVPSRFSGSGSGTDFTLTISSLQPEDFATYYCQQSYSALTWTFGQGTKVEIK
B2: antibody 545 (antibody, V domains shown)
VH: QVQLVQSGSELKKPGASVKVSCKASGYTFTSYAMNWVRQAPGQGLEWMGWINTNTGNPTYAQGFTGRFVFSLDTSVSTAYLQISVLKAEDTGVYYCARDHELPNSSSWFGHFEYWGQGTLVTVSS
VL: SYELTQPPSVSVSPGQTARITCSGDALPKQYAYWYQQKAGQAPVLVIYKDSERRSGIPERFSGSSSGTTVTLTISGVQAEDEADYYCQSADSSGTSVVFGGGTKLTVL
B3: antibody 547 (antibody, V domains shown)
VH: QVHLVESGGGVVQPGRSLRLSCAASGFALSSYAMHWVRQPPGKGLEWVALISYDGSVKKYADSVKGRITVSGDNSRNTLHLQINSLRADDTAVYYCVRGGVSGPNSFDLWGHGTMVTVSS
VL: DVVLTQSPLSLPVTLGQPASISCRSSQSLEYSVGNTYVNWFQQRPGQSPRRLIYKVSNRDSGVPDRFSGSGSGTDFTLQISRVEADDVGIYYCMQGTHWPVTFGQGTKVEIK
B4: antibody 548 (antibody, V domains shown)
VH: QVQLVESGGGVVQPGRSLRLSCAASGFTFSSYAMHWVRQAPGKGLEWVAVISYDGSNKYYADSVKGRFTISRDNSKNTLYLQMNNLRAEDTAVYYCAKSGSGSYLSAFDIWGQGTMVTVSS
VL: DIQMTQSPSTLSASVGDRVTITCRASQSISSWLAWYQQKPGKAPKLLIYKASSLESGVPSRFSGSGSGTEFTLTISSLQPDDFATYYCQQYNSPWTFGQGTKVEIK
B5: antibody 409 (antibody, V domains shown)
VH: QVTLRESGPALVKPTQTLTLTCTFSGFSLSTSGMCVSWIRQPPGKALEWLALIDWDDDKYYSTSLKTRLTISKDTSKNQVVLTMTNMDPVDTATYYCARTTYYYVSGRRAEFDPWGQGTLVTVSS
VL: NFMLTQPHSVSESPGKTVTISCTGSSGSIASNYVQWYQQRPGSAPTTVIYEDNQRPSGVPDRFSGSIDSSSNSASLTISGLKTEDEADYYCQSYDSSNQGVFGGGTKLTVL
B6: antibody 396 (antibody, V domains shown)
VH: QVQLQQWGAGLLKPSETLSLTCAVYGGSFSGYYWSWIRQPPGKGLEWIGEIIHSGSTNYNPSLKSRVTISVDTSKNQFSLKLSSVTAADTAVYYSARRTGLLWFREGSYYFDYWGQGTLVTVSS
VL: DIQMTQSPSSLSASVGDRVTITCRASQGIRNDLGWYQQKPGKAPKRLIYAASSLQSGVPSRFSGSGSGTEFTLTISSLQPEDFATYYCLQHNSYPLTFGGGTKVEIK
B7: antibody 407 (antibody, V domains shown)
VH: QVQLVESGGGVVQPGRSLRLSCAASGFTFSSYGMHWVRQAPGKGLEWVAVISYDGSNKYYADSVKGRFTISRDNSKNTLYLQMNSLRAEDTAVYYCAKCGWDYDFWVGQGYGMDVWGQGTTVTVSS
VL: not shown
B8: antibody 421 (antibody, V domains shown)
VH: QVQLVESGGGVVQPGRSLRLSCAASGFTFSTYAMHWVRQAPGKGLEWVAVISYDGSNKYYADSVKGRFTISRDNSKNTLYLQMNSLRAEDTAVYYCARGYGSGSYYPLYLYWGQGTLVTVSS
VL: not shown
B9: antibody 404 (antibody, V domains shown)
VH: QVQLVESGGGVVQPGRSLRLSCAASGFTFSSYGMHWVRQAPGKGLEWVAVIWYDGSNKYYADSVKGRFTISRDNSKNTLYLQMNSLRAEDTAVYYCARLAVDISFDGSDGMDVWGQGTTVTVSS
VL: SYELTQPPSVSVSPGQTARITCSGDALPKKYAYWYQQKSGQAPVLVIYEDSKRPSGIPERFSGSSSGTMATLTISGAQVEDEADYYCYSTDSSGKGVFGTGTKVTVL
B10: antibody 422 (antibody, V domains shown)
VH: QVQLVQSGSELKKPGASVKVSCKASGYTFTSYAMNWVRQAPGQGLEWMGWINTNTGNPTYAQGFTGRFVFSLDTSVSTTYLQISSLKAEDTAVYYCARVIGVVTYYYYGMDVWGQGTTVTVSS
VL: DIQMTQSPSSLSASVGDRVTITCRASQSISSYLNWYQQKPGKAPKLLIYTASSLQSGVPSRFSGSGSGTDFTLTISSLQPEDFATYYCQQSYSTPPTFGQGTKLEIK
B11: antibody 423 (antibody, V domains shown)
VH: EVQLVESGGGLIQPGGSLRISCAASGFTVRNNHMSWVRQAPGKGLEWVSVFYRGGTTYYADSVKGRFTISRDDSKNTVDLQMNSLRGEDTAVYYCARGLSVAASGYFDCWGQGTLVTVSS
VL: DIQMTQSPSSVSASVGDTVTITCRANQGISSWLAWYQQVPGKAPELLIYATSTLQSGVPSRFSGSGSGTDFTLTISSLQPEDFATYYCQQANSFPFTFGPGTKVDIK
B12: antibody 431 (antibody, V domains shown)
VH: QVQLVESGGGVVQPGRSLRLSCAASGFTFSSYAMHWVRQAPGKGLEWLAVISYDGSNKYYADSVKGRFTISRDNSKNTLYLQMNSLRAEDTAVYYCARSFRGGYYYGMDVWGQGTTVTVSS
VL: DIQLTQSPSFLSASVGDRVTITCRASQGISSYLAWYQQKPGKAPKLLIYAASTLQSGVPSRFSGSGSGTEFTLTISSLQPEDFATYYCQQLNSYPLFTFGPGTKVDIK
B13: antibody 385 (antibody, V domains shown)
VH: B4 VH with M34I, N85S, K98R, S99P, G100R, L105W, S106G
VL: QSVLTQPPSVSGAPGQRVTISCTGSSSNIGARYDVHWYQQLPGTAPKLLIYGNSNRPSGVPDRFSGSKSGTSASLAITGLQAEDEADYYCQSYDSSLRGVFGGGTKLTVL
B14: antibody 395 (antibody, V domains shown)
VH: QVQLVQSGSELKKPGASVKLSCQASGYTFSNHAMNWVRQAPGQGLEWMGWINTNTGNPTYAQGFTGRFVFSLDTSVGTAYLHISSLKAEDTAFYYCARASARPGVATNLDFWGQGTLVVVSS
VL: DIQMTQSPSSLSASVGDRVTITCRTSQNIDNYLNWYQQKPGKAPNLLIYAASRLHSGVPSRFSGSGSGTDFTLIISSLQPEDLATYYCQQSYSNPLTFGPGTKVDIR
B15: antibody 392 (antibody, V domains shown)
VH: QVQLQESGPGLVKPSGTLSLTCAVSGGSISSSNWWSWVRQPPGKGLEWIGEIYHSGSTNYNPSLKSRVTISVDKSKNQFSLKLSSVTAADTAVYYCARGWRATLYGMDVWGQGTTVTVSS
VL: QSALTQPASVSGSPGQSITISCTGTSSDVGSYNLVSWYQQHPGKAPKLMIYEVSKRPSGVSNRFSGSKSGNTASLTISGLQAEDEADYYCCSYAGSSTWVFGGGTKLTVL
B16: antibody 405 (antibody, V domains shown)
VH: not shown
VL: B15 VL with A8R, I18V, S31G, L34Y, E52D, S61P, N62D, S97Y, T98N, W99V
B17: antibody 412 (antibody, V domains shown)
VH: QVQLVQSGAEVKKPGASVKVSCKASGYTFTSYGISWVRQAPGQGLEWMGWISAYNGNTNYAQKLQGRVTMTTDTSTSTAYMELRSLRSDDTAVYYCARVTVEAIFGVVILPLKNWFDPWGQGTLVTVSS
VL: QSVLTQPPSVSGAPGQRVTISCTGSSSNIGAGYDVHWYQQLPGTAPKLLIYGNSNRPSGVPDRFSGSKSGTSASLAITGLQAEDEADYYCQSYDSSLTLYVFGTGTKVTVL
B18: antibody 434 (antibody, V domains shown)
VH: QVQLVQSGAEVKKPGASVQVSCKASGYTFSDYYIFWVRQAPGQGLEWMGCINPKSGGAIYAQRFQGRVTMTRDTSFNTAYMEMNRLGSDDTAVYYCVTRGPPDIAASGFAWHLDVWGQGTTVTVSS
VL: DIVMTQSPLSLPVTPGEPASISCRSSQSLLSSNGYNYLEWYLQKPGQSPQLLMYLGSNRASGVPDRFSGSGSGTDFTLKINRVEAEDVGVYYCMQALQTPLTFGGGTKVEIK
B19: antibody 446 (antibody, V domains shown)
VH: B4 VH with N85S, K98R, S99P, G100N, L105F, S106G, A107Y, D109Q, I110H, M116L
VL: QSVLTQPPSVSGAPGQRVTISCTGSSSNIGAGYDVHWYQQLPGTAPKLLIYGNSNRPSGVPDRFSGSKSGTSASLAITGLQAEDEADYYCQSYDSSLSGFYVFGTGTKVTVL
B20: antibody 439 (antibody, V domains shown)
VH: B12 VH with L48V, S99P, F100P, Y104S, G107P, M108F, V110P, T116L
VL: not shown
B21: antibody 443 (antibody, V domains shown)
VH: QMRLEESGPGLVKPSETLSLTCTVAGGSITSSDYFWGWLRQSPGKGLEWIASTYHGGSIQYHPALKSRVTISVDASKNQISLRLSSVTAADTAVYYCARDRGDDGPMGTYYFDHWGQGALVTVSS
VL: QSVLTQPPSVSGAPGQSVTISCAGSSSNIGAGHDVHWYQQIPGTAPKLLICGNTNRPSGVPERFSGSRSGTSASLAITGLQAEDEAVYYCQSYDPSHVFFGTGTKLTVL
B22: antibody 444 (antibody, V domains shown)
VH: QVQLVESGGGLVKPGGSLRLSCAASGFTFSDYYMSWIRQAPGKGLEWVSYISSSGSTIYYADSVKGRFTISRDNAKNSLYLQMNSLRAEDTAVYYCARERKVVVAATRNYYYYYGMDVWGQGTTVTVSS
VL: SYELTQPPSVSVSPGQTARITCSGDALPKQYAYWYQQKPGQAPVLVIYKDSERPSGIPERFSGSSSGTTVTLTISGVQAEDEADYYCQSADSSTWVFGGGTKLTVL

The first assay concerns the target SARS-CoV-2 full length spike protein (wild-type), conjugated to optically encoded beads (SARS-CoV-2, UniProt P0DTC2 14-1208).
Turning to B1, the “median fluorescence fold over isotype” value was found to be 1160 fold over isotype.

On to B2, for which the “median fluorescence fold over isotype” value was 939 fold over isotype.

Take B3: the “median fluorescence fold over isotype” value was found to be 606 fold over isotype.

B4: the “median fluorescence fold over isotype” value was found to be 642 fold over isotype.

In another assay the target is SARS-CoV spike protein (full length spike, trimeric, conjugated to beads) (SARS-CoV, UniProt P59594 14-1190).
For B5, the “median fluorescence fold over isotype control” value was found to be 1.03 fold over isotype control.

For B6, the “median fluorescence fold over isotype control” value came to 1.36 fold over isotype control.

With B7, the “median fluorescence fold over isotype control” value is 1.07 fold over isotype control.

Take B8: the “median fluorescence fold over isotype control” value stood at 1.19 fold over isotype control.

For B9, the “median fluorescence fold over isotype control” value was 1.04 fold over isotype control.

B10: the “median fluorescence fold over isotype control” value was determined as 1.19 fold over isotype control.

B11: the “median fluorescence fold over isotype control” value was 1.23 fold over isotype control.

As to B12, the “median fluorescence fold over isotype control” value was 49.9 fold over isotype control.

Turning to B13, the “median fluorescence fold over isotype control” value was found to be 59.6 fold over isotype control.

As for B14, the “median fluorescence fold over isotype control” value was 1.16 fold over isotype control.

As to B15, the “median fluorescence fold over isotype control” value was 1.08 fold over isotype control.

For the molecule B16, the “median fluorescence fold over isotype control” value is 80.9 fold over isotype control.

B17: the “median fluorescence fold over isotype control” value was determined as 1.09 fold over isotype control.

The target of a further assay is SARS-CoV spike protein (full length, trimeric) (SARS-CoV, UniProt P59594 14-1190).
On to B18, for which the “fold over isotype control (median fluorescence)” value (shortened to “fold … (median fluorescence)”) turned out to be 1.36 fold over isotype.

Take B19: the “fold … (median fluorescence)” value is 6.58 fold over isotype.

In the case of B20, the “fold … (median fluorescence)” value is 1.23 fold over isotype.

For B21, the “fold … (median fluorescence)” value was found to be 1.03 fold over isotype.

As for B22, the “fold … (median fluorescence)” value stood at 1 fold over isotype.
